The values below come from US8591908B2, “Immunogen for preparation of therapeutic vaccines or drugs for treatment of hepatitis B and the producing method and use thereof” (Institute of Immunology, PLA, priority 2002, dated 2013).

Ends that are not written are not given here. * marks the point of attachment. linolenoyl = CH3CH2CH=CHCH2CH=CH(CH2)CH=CH(CH2)7CO, CC/C=C\C/C=C\C/C=C\CCCCCCCC(=O)*; Palmitoyl = CCCCCCCCCCCCCCCC(=O)*

Series [1] is described as follows: Encapsulation rate of liposome (RP-HPLC). The format is physicochemical. As to conditions: L9(3^4) orthogonal test of lipid components and liposome forming conditions; 6 mmol/L vitamin E. As for the experimental part: Liposome was prepared by a double emulsion method. The lipid components were dissolved in ethyl ether solution, mixed with the concentrate of the present compound to form an emulsion (W/O), then poured into phosphate buffer (PB) or water under a controlled temperature and stirred to form a further emulsion (W/O/W), and liposome was gradually formed as ethyl ether gradually volatilized. The product in free form and aggregate and precipitate in the liquid was removed by concentration in ultrafiltration apparatus and dialysis (the dialysis must be 200 folds or higher) and by filtration via a 10 μm microporous filter. Aliquots were removed for reversed phase high performance liquid chromatography (RP-HPLC) to determine the encapsulation amount, and the encapsulation rate was calculated by comparing to the incorporated amount. L9(3^4) orthogonal table was used in the experimental design.
Based on the formulation and conditions determined by said orthogonal test, the effects of the concentration of the immunogen solution on the encapsulation rate of the liposome were compared. […]

A short description of series [2]: Size shrinkage of liposome after lyophilization. The format is physicochemical. The settings on record: 5% mannitol/10 mmol/L phosphate buffer. An excerpt: In the Table 16, all of the formulations 1-11 contained a buffer of 5% mannitol/10 mmol/L phosphate(KH2PO4/Na2HPO4 was 60/40)
When the addition amount of the concentrated liposome solution was 25-50% (v/v) of the semifinished product liquor for subpackage, addition of 1% human serum albumin as excipient will result in better lyophilization effects. Thus, when the volume of the concentrated liposome solution was equal to the volume of the emulsion (W/O), the volume of the concentrated liposome solution was determined as 37.5% (v/v) of the volume of the product liquor for subpackage, i.e., an average level of the amount of the concentrated liposome solution. In this case, the concentrations of the adjuvants in the product liquor for subpackage should meet the requirements as set forth in Table 16-4. The volume of subpackage should be 1 ml and meet the requirements for the formulation of lyophilized liposome injection. In practice, the volume of the concentrated liposome solution usually is greater than the volume of emulsion (W/O), so the volume of the product liquor for subpackage may be increased. Thus, the actual subpackage volume is calculated according to the following formula.

In the next series the test system is HBV-DNA, HBeAg and HBsAg. Kind of series: FIG. 5: virus inhibition test with PBMC of HBV carrier and hepatitis patients. The settings on record: supernatant, with increase of co-culture time. Type of series: cell-based, hepatitis B virus. An excerpt: FIG. 5 indicated the antiviral effects of the immunogen of the present invention. Peripheral blood mononuclear lymphocytes were separately isolated from fresh peripheral bloods of a HLA-A2+HBV carrier, a patient suffering from acute hepatitis, and a patient suffering from chronic hepatitis, and were subjected to virus inhibition tests to measure the copy numbers of HBV-DNA (A) and secretion levels of HBeAg and HBsAg in the supernatant (B, C).

Series [3] deals with hepatitis B surface antigen (HBsAg) in HBV transgenic mice. Kind of series: HBV transgenic mice: HBsAg in serum, ELISA. The format is in vivo. As to conditions: 10th, 20th, 30th day after three immunizations, 10-1000 U/mouse. As to the method:
(§1) The levels of cytokines such as IFN-γ, IL-4, etc. in supernatant were measured by the ELISA method, and the activity of the test drug (CH3(CH2)14COKSSQYIKANSKFIGITEAAASIVSPFIPLLGGGDPRVRGLYFPA) (SEQ ID NO:5) for inducing the differentiation of T cells into Th1/Th2 type was analyzed. […] The expression frequency of IFN-γ secreting cells in peripheral blood lymphocytes was measured by the ELI-SPOT method in said supernatant. […] On the 10th, 20th and 30th day after the end of the three immunizations, bloods were removed, serum isolated, and the contents of HBsAg and HBV-DNA in the serum were separately measured by the ELISA method and quantitative PCR method.
On the technique in general: ELISA stands for enzyme-linked immunosorbent assay.

Series [4] has as its system HBV-DNA transgenic mice. Kind of series: HBV transgenic mice: IFN-γ secreting cells, ELI-SPOT. The settings on record: 30th day after end of immunization. Type of series: in vivo. As for the experimental part: as §1
The expression frequency of IFN-γ secreting cells in peripheral blood lymphocytes was measured by the ELI-SPOT method.

Series [5] deals with HBV-DNA transgenic mice. Kind of series: HBV transgenic mice: cytokines of spleen lymphocytes, ELISA (Th1/Th2). The settings on record: 10, 100, 1000 U/mouse s.c., day 30; spleen lymphocytes restimulated with 10 ng/ml for 3 days. Type of series: in vivo. As for the experimental part: as §1
Then supernatants were collected and the secretion levels of cytokines such as TNF-α, IFN-γ, IL-4, etc. in supernatants were measured by ELISA, and the activity of the test drug for inducing the conversion of Th1/Th2 type from T cells in subjects was analyzed.

Series [6] relates to HBV DNA in HBV transgenic mice. Description: HBV transgenic mice: HBV DNA in serum, quantitative PCR. Type of series: in vivo. As to conditions: 10th, 20th, 30th day after three immunizations, 10-1000 U/mouse. As to the method:
as §1

A further series deals with enzyme-labeled antibody. Kind of series: Potency/specific activity of stock solution or semifinished product, enzyme-linked plate. Type of series: binding. The settings on record: stock solution after reversed phase chromatography; batches 1-3 and x ± Sx. An excerpt:
Chromatography column AP5 20/275 POROS 50 R1 was used in the batch production. After peptide-resin was cleaved and preliminarily purified, the collected εPA44 sample was divided into 7 parts for high purification, and the effects and reproducibility for batch purification of εPA44 stock solution were furthered studied. […] The collected elution peak fractions of εPA44 were pooled and mixed homogenously, aliquots were removed for analysis. If the sample met the set standards, it was used as the stock solution and was stored at −20° C. until use. The output, yield and specific activity of the product were calculated based on the measured data.
The semifinished product to be tested was diluted to a concentration within the measurable range of the potency determination. An enzyme-linked plate( ? ) was coated, blocked, bound by enzyme-labeled antibody, and developed. The absorbance at 450 nm (A450 nm) was detected by an enzyme-labeling device, and compared to the reference of the product. The potency of εPA44 in the extract of the sample was determined, and the specific activity of the semifinished product ( ? ) was calculated.
The reference of the product was 10-fold diluted with 50% ethanol, and then was two-fold serially diluted. 100 μl dilutions were separately added to the wells on the 96-well enzyme-linket immunosorbent assay plate, each well was repeated in triplicate. Coating was carried out in refrigerator at 4° C. for 20-24 hours. The stock solution of εPA44 was diluted and coated similarly to the reference. 100 μl of 50% ethanol was added to negative control wells. After the coating was completed, 200 μl 1% calf serum was added to each well, and blocked in refrigerator at 4° C. for 2 hours. The enzyme-linket immunosorbent assay plate was dried in air, 80 μl enzyme-labeled antibody was added to each well and incubated at 37° C. for 40 minutes. The plate was washed with wash solution for 4 times and dried in air, then 50 μl of substrate solution A and 50 μl of substrate solution B were added to each well and developed at 37° C. for 15 minutes under protection from light. Then 50 μl of stop solution was added to each well. A450 nm values were detected on 550 type enzyme-linket immunosorbent assay detector. The median dilution times of the reference and the samples were calculated by program or linear regression method based on the median effect value of the reference of εPA44 (median maximum absorbance), and the potency of the test sample and the specific activity of the product were calculated according to the following formulas.

The test system of series [7] is T2 cells, E6 cells and HepG2.2.15 cells. Description: HBV-specific CTL from human PBMCs, 51Cr release cytotoxicity test. Type of series: cell-based. As for the experimental part: Human PBMCs were divided into groups and cultured in RPMI1640 culture media (containing 10% calf serum, and 100μ/ml penicillin-streptomycin) (10^6/ml, 24-well culture plates) in vitro for one day. After they recovered the original growth state, IL-2(30-IU/ml) and test drug (0.1 μg/ml, 1 μg/ml) were separately added. […] 3 days after the last stimulation, antigen-specific effective CTL cells were obtained. Cytotoxicity was tested by standard ^51Cr release tests and compared. Target cells (T2 cells and HepG2.2.1.5 cells pre-coated with peptide) were grown to a good state. 10 hours before the cells were used, 10 μg/ml test drug was added to the culture, and the cells were incubated. 10^6 Target cells were placed in 1 ml RPMI1640 media (containing 20% calf serum), and 100 μCi ^51Cr (NEN) was added for labelling in water-bath at 37° C. for 2 hours. The labelled target cells were washed with sterilized PBS buffer for 3 times under centrifugation (500 rpm/5 min), and were plated on 96-well V-bottom culture plates in an amount of 10^4 target cells/50 μl/well, each well was treated in triplicate. […] The minimum release value was 30% lower than the maximum release value. The formula for calculating ^51Cr release percentage was: [(CPMsample−CPMminimum release)/(CPMmaximum release−CMPminimum release)]×100%.

Series [8] concerns peripheral blood mononuclear lymphocytes of HLA-A2+ healthy person. The settings on record: culture supernatant, 24 h after last stimulation.

Turning to “1 (Palmitoyl-KSSQYIKANSKFIGITEAAAFLPSDFFPSVGGGDPRVRGLYFPA) [compound 1]”, the Encapsulation rate in series [1] stood at 93.16%. Also, the “degree of size shrinkage of the liposome after lyophilization” value (“degree of size shrinkage of the liposome” below) in series [2] is reported as “++++”.
With “3 (KSSQYIKANSKFIGITEGGGDPRVRGLYFPA; not fully specified (N-terminus); printed as CH3CH2CH═CHCH2CH═CH(CH2)7CO7KSSQYIKANSKFIGITEGGGDPRVRGLYFPA; also: N-terminal acyl on K unclear: CH3(CH2)7CH=CH(CH2)-CO or CH3CH2CH=CHCH2CH=CH(CH2)7CO) [compound 3]”, in [1], the Encapsulation rate is given as 44.92%. In [2], the “degree of size shrinkage of the liposome” value was “+++”.
Taken in the same sequence, the figures for “4 (Palmitoyl-KSSQYIKANSKFIGITEAAAFLPSDFFPSVGGGCTKPTDGNCT; cysteine pairing not given here) [compound 4]” were 69.48% and “++”.
Taken in the same sequence, the figures for “5 (Palmitoyl-KSSQYIKANSKFIGITEAAASIVSPFIPLLGGGDPRVRGLYFPA) [compound 5]” were 97.27% and “+++”.
The substance “6 (QYIKANSKFIGITE; Th cell epitope from tetanus toxoid or variant species thereof) [compound 6]” had an Encapsulation rate in [1] of 79.26%. Moreover, the “degree of size shrinkage of the liposome” value in [2] was “+++”.
“7 (PADRE; Th cell epitope from tetanus toxoid or variant species thereof) [compound 7]” registered an Encapsulation rate in [1] of 53.75%. The “degree of size shrinkage of the liposome” value in series [2] is listed as “−”.
As to “8 (PLGFFPDH; Hepatitis B virus) [compound 8]”, in [1], the Encapsulation rate amounted to 79.29%. Besides, the “degree of size shrinkage of the liposome” value in series [2] is given as “−”.
“9 (MQWNSTALHQALQDP; Hepatitis B virus) [compound 9]” had an Encapsulation rate in [1] of 109.4%. Besides, in series [2], the “degree of size shrinkage of the liposome” value is listed as “+”.
With “10 (SILSKTGDPV; Hepatitis B virus) [compound 10]”, in [2], the “degree of size shrinkage of the liposome” value is listed as “+”.
For the substance “CH3(CH2)14COKSSQYIKANSKFIGITEAAAFLPSDFFPSVGGGCTKPTDGNCT (Palmitoyl-KSSQYIKANSKFIGITEAAAFLPSDFFPSVGGGCTKPTDGNCT; cysteine pairing not given here) [SEQ ID NO:4]”, in the series on HBV-DNA, HBeAg and HBsAg, the “copy numbers of HBV-DNA” value is “inhibited in an obvious dose-effect dependence relation”, the “secretion level of HBeAg” value is “inhibited in an obvious dose-effect dependence relation” and the “secretion level of HBsAg” value was “inhibited in an obvious dose-effect dependence relation”.
With “CH3(CH2)14COKSSQYIKANSKFIGITEAAASIVSPFIPLLGGGDPRVRGLYFPA (Palmitoyl-KSSQYIKANSKFIGITEAAASIVSPFIPLLGGGDPRVRGLYFPA) [SEQ ID NO:5]”, the “HBsAg in the serum” value in [3] is “obvious decrease”. Moreover, the “expression frequency of IFN-γ secreting cells in peripheral blood lymphocytes” value with HBV-DNA transgenic mice [4] (10-1000 U/mouse) is listed as “increased with the increase of immunogen dose”. The “highest expression frequency of IFN-γ secreting cells” value in the series with HBV-DNA transgenic mice [4] (IFN-α2b at 15000 U/mouse) is 3660 IFN-γ secreting cells/10^6 PBMC. In the series on HBV-DNA transgenic mice [5], the IL-4 secretion result is on record as “did not exhibit an obvious dose-effect dependence relation” and the “secretion of IFN-γ” value is “strong secretion of IFN-γ”. Further, in series [6], the “HBV-DNA in the serum (copy number, replication level)” value was “obvious decrease”.
“CH3(CH2)14COKSSYIKANSK FIGITEAAAMQWNSTALHQALQDPGGGDPRVRGLYFPA (Palmitoyl-KSSYIKANSKFIGITEAAAMQWNSTALHQALQDPGGGDPRVRGLYFPA) [SEQ ID NO:72]” had a Specific activity in the series with enzyme-labeled antibody of 11689.76±1503.57 U/mg.
“CH3CH2CH═CHCH2CH═CH(CH2)CH═CH(CH2)7COFLPSDFFPSVAAADPRVRGLYFPA (linolenoyl-FLPSDFFPSVAAADPRVRGLYFPA) [SEQ ID NO:54]”: the “specific killing of target cells” value in series [7] was “specifically kill peptide pre-coated T2 cells, E cells and HepG2.2.15 cells”. For the same substance, the “target cell-specific lysis rate” value in series [7] (PBMCs of healthy human) is on record as “up to 62.8%”.
For “CH3CH2CH═CHCH2CH═CH(CH2)CH═CH(CH2)7COKSSPAREGGGWLSLLVPFVSSSDP RVRGLYFPA [SEQ ID NO:2]”, in series [8], the “effect of inducing the secretion of IL-4” value is “not obvious” and the “secretion of IFN-γ” value is “induce the secretion of IFN-γ in a notable dose-effect dependence relation”.
